From patent US20040208887A1

Biological target: recombinant E2 (genotype 1a) (hepatitis C virus genotype 1a) (UniProt P26664)
Experiment: ELISA, E2 coated as negative control antigen; crude periplasmic Fab

Sequence of recombinant E2 (genotype 1a) (hepatitis C virus genotype 1a) (P26664 384-715 limits assumed): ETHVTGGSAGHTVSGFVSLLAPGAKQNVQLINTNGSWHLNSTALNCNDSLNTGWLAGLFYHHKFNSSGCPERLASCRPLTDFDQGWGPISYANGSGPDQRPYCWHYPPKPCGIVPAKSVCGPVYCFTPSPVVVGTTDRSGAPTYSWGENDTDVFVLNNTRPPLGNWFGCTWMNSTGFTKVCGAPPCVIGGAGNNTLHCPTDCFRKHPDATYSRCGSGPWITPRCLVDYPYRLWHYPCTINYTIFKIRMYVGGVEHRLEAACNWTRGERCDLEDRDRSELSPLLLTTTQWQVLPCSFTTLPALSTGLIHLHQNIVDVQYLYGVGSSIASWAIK

Binder	OD405 nm [OD405 nm]
Fab clone 6a:5 (Fab, V domains shown) VH: EVQLLESGPGLVKPSQTLSLTCAISGDNVSRKSAAWNWIRQSPSRGLEWLGRTYHMSKWYSVYATSLKSRININVDTSRNQFALQLRSVTPEDTAVYYCAREGPEWAVGGTYGMDVWGQGTTVTVSS VL: AELTQSPDTLSLSPGERATLSCRASQSVNNNYLAWYQQKPGQAPRLLIYGASSRATGIPDRFSGSGSETDFTLTISRLEPEDFAVYYCQQYDSSRTFGQGTKVEIK	0.03
Fab clone 4:6 (Fab, V domains shown) VH: VQLLEQSGAEVKKPGASVKVSCKASGYTFTKYYLHWVRQAPGQGLEWMGFINPSGGSTSSAQKFQGRISMTRDTSTTTVYMEVNSVTSEDTAVYYCARVGRLGVGATGAFDLWGQGTMVTVSS VL: AELTQSPSSLSASVGDRVTITCQASQDINYSLNWYQQKPGKPPKLLIYYASHSDTGVPSRFSGGGSGTRFTLTIYSLQPEDIATYYCQHFDHVPRYTFGPGTKVDLK	0.08
